# Assay results as given in patent US20240294594A1 (CYTUNE PHARMA, published 2024).
# Substitutions are numbered along the chain they refer to. Numbers in names are those of the source.
# T1: IL-2/IL-15Rβγ (on cells) (UniProt P14784 27-551; P31785 23-369, limits assumed)
# T1 sequence (looked up) 1: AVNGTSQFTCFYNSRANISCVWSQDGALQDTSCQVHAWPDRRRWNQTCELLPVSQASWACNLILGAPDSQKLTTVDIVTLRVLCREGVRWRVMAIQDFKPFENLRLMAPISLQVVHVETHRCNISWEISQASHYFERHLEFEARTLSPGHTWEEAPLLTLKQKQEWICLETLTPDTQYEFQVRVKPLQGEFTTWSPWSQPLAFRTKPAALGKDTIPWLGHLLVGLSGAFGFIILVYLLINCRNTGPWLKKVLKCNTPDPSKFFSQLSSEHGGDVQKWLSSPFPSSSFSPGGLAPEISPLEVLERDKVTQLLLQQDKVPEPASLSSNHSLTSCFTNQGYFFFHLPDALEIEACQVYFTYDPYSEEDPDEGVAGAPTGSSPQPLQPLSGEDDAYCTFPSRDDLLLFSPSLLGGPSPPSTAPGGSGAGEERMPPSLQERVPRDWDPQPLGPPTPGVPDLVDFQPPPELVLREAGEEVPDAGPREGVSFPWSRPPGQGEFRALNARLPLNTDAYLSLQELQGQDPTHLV
# T1 sequence (looked up) 2: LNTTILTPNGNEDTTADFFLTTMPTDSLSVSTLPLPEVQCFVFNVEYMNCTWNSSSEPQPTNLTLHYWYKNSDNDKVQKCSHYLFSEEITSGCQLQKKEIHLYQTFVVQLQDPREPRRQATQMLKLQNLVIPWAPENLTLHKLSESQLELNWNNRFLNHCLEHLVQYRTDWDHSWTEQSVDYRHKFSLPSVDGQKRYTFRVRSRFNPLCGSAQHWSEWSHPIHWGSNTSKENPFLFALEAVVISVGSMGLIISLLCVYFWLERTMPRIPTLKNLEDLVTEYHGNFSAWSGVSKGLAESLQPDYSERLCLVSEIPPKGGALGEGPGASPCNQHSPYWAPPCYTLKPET
# T2: FcγRIIb (UniProt P31994 46-217, limits assumed)
# T2 construct: also called FcgRIIb
# T2 sequence (looked up): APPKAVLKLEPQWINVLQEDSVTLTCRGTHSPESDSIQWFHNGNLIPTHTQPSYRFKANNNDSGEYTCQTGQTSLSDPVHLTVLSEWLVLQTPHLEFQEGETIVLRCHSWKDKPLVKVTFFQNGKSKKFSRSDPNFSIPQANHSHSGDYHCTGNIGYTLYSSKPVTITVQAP
# B1: PEM LE/YTE-RLI NA x1 (other)
# heavy 1: QVQLVQSGVEVKKPGASVKVSCKASGYTFTNYYMYWVRQAPGQGLEWMGGINPSNGGTNFNEKFKNRVTLTTDSSTTTAYMELKSLQFDDTAVYYCARRDYRFDMGFDYWGQGTTVTVSSASTKGPSVFPLAPCSRSTSESTAALGCLVKDYFPEPVTVSWNSGALTSGVHTFPAVLQSSGLYSLSSVVTVPSSSLGTKTYTCNVDHKPSNTKVDKRVESKYGPPCPPCPAPEFEGGPSVFLFPPKPKDTLYITREPEVTCVVVDVSQEDPEVQFNWYVDGVEVHNAKTKPREEQFNSTYRVVSVLTVLHQDWLNGKEYKCKVSNKGLPSSIEKTISKAKGQPREPQVYTLPPSQEEMTKNQVSLWCLVKGFYPSDIAVEWESNGQPENNYKTTPPVLDSDGSFFLYSRLTVDKSRWQEGNVFSCSVMHEALHNHYTQKSLSLSLGITCPPPMSVEHADIWVKSYSLYSRERYICNSGFKRKAGTSSLTECVLNKATNVAHWTTPSLKCIRDPALVHQRPAPPSGGSGGGGSGGGSGGGGSGGNWVNVISDLKKIEDLIQSMHIDATLYTESDVHPSCKVTAMKCFLLELQVISLESGDASIHDTVEALIILANNSLSSNAQVTESGCKECEELEEKNIKEFLQSFVHIVQMFINTS
# heavy 2: QVQLVQSGVEVKKPGASVKVSCKASGYTFTNYYMYWVRQAPGQGLEWMGGINPSNGGTNFNEKFKNRVTLTTDSSTTTAYMELKSLQFDDTAVYYCARRDYRFDMGFDYWGQGTTVTVSSASTKGPSVFPLAPCSRSTSESTAALGCLVKDYFPEPVTVSWNSGALTSGVHTFPAVLQSSGLYSLSSVVTVPSSSLGTKTYTCNVDHKPSNTKVDKRVESKYGPPCPPCPAPEFEGGPSVFLFPPKPKDTLYITREPEVTCVVVDVSQEDPEVQFNWYVDGVEVHNAKTKPREEQFNSTYRVVSVLTVLHQDWLNGKEYKCKVSNKGLPSSIEKTISKAKGQPREPQVYTLPPSQEEMTKNQVSLSCAVKGFYPSDIAVEWESNGQPENNYKTTPPVLDSDGSFFLVSRLTVDKSRWQEGNVFSCSVMHEALHNHYTQKSLSLSLG
# light: EIVLTQSPATLSLSPGERATLSCRASKGVSTSGYSYLHWYQQKPGQAPRLLIYLASYLESGVPARFSGSGSGTDFTLTISSLEPEDFAVYYCQHSRDLPLTFGGGTKVEIKRTVAAPSVFIFPPSDEQLKSGTASVVCLLNNFYPREAKVQWKVDNALQSGNSQESVTEQDSKDSTYSLSSTLTLSKADYEKHKVYACEVTHQGLSSPVTKSFNRGEC
# B2: RLI2 mutein D30N/E64Q/N65D (NQD) of Table 13 (ligand)
# chain: ITCPPPMSVEHADIWVKSYSLYSRERYICNSGFKRKAGTSSLTECVLNKATNVAHWTTPSLKCIRDPALVHQRPAPPSGGSGGGGSGGGSGGGGSGGNWVNVISDLKKIEDLIQSMHIDATLYTESNVHPSCKVTAMKCFLLELQVISLESGDASIHDTVQDLIILANNSLSSNGNVTESGCKECEELEEKNIKEFLQSFVHIVQMFINTS
# B3: RLI DANAQD (ligand)
# chain: B2 chain with N127D, D158A, Q161E, D162A, Q198D
# B4: hCl1a AAA-RLI DANA (other)
# heavy 1: QVQLVQSGAEVKKPGASVKVSCKASGYTFTDYAMHWVRQAPGQRLEWMGWINTYTGKPTYAQKFQGRVTITRDTSASTAYMELSSLRSEDTAVYYCARAVFYGYTMDAWGQGTLVTVSSASTKGPSVFPLAPSSKSTSGGTAALGCLVKDYFPEPVTVSWNSGALTSGVHTFPAVLQSSGLYSLSSVVTVPSSSLGTQTYICNVNHKPSNTKVDKKVEPKSCDKTHTCPPCPAPELLGGPSVFLFPPKPKDTLMISRTPEVTCVVVDVSHEDPEVKFNWYVDGVEVHNAKTKPREEQYNATYRVVSVLTVLHQDWLNGKEYKCKVSNKALPAPIAATISKAKGQPREPQVYTLPPSRDELTKNQVSLWCLVKGFYPSDIAVEWESNGQPENNYKTTPPVLDSDGSFFLYSKLTVDKSRWQQGNVFSCSVMHEALHNHYTQKSLSLSPGITCPPPMSVEHADIWVKSYSLYSRERYICNSGFKRKAGTSSLTECVLNKATNVAHWTTPSLKCIRDPALVHQRPAPPSGGSGGGGSGGGSGGGGSGGNWVNVISDLKKIEDLIQSMHIDATLYTESDVHPSCKVTAMKCFLLELQVISLESGDASIHATVEALIILANNSLSSNAQVTESGCKECEELEEKNIKEFLQSFVHIVQMFINTS
# heavy 2: QVQLVQSGAEVKKPGASVKVSCKASGYTFTDYAMHWVRQAPGQRLEWMGWINTYTGKPTYAQKFQGRVTITRDTSASTAYMELSSLRSEDTAVYYCARAVFYGYTMDAWGQGTLVTVSSASTKGPSVFPLAPSSKSTSGGTAALGCLVKDYFPEPVTVSWNSGALTSGVHTFPAVLQSSGLYSLSSVVTVPSSSLGTQTYICNVNHKPSNTKVDKKVEPKSCDKTHTCPPCPAPELLGGPSVFLFPPKPKDTLMISRTPEVTCVVVDVSHEDPEVKFNWYVDGVEVHNAKTKPREEQYNATYRVVSVLTVLHQDWLNGKEYKCKVSNKALPAPIAATISKAKGQPREPQVYTLPPSRDELTKNQVSLSCAVKGFYPSDIAVEWESNGQPENNYKTTPPVLDSDGSFFLVSKLTVDKSRWQQGNVFSCSVMHEALHNHYTQKSLSLSPG
# light: DIQMTQSPSSLSASVGDRVTITCRASEDIYSNLAWYQQKPGKAPKLLIFSVKRLQDGVPSRFSGSGSGTDFTLTISSLQPEDFATYYCLQGSNFPLTFGQGTKVEIKRTVAAPSVFIFPPSDEQLKSGTASVVCLLNNFYPREAKVQWKVDNALQSGNSQESVTEQDSKDSTYSLSSTLTLSKADYEKHKVYACEVTHQGLSSPVTKSFNRGEC
# notes: Immunocytokine; also called SOT202-AAA-DANA
# B5: hCl1a DLE-RLI DANA (other)
# heavy 1: B4 heavy 1 with S241D, A300S, A332L, I334E, A335E, A336K
# heavy 2: B4 heavy 2 with S241D, A300S, A332L, I334E, A335E, A336K
# light: B4 light
# notes: Immunocytokine; also called SOT202-DLE-DANA
# B6: hCl1a DLE-RLI DANA afuc (other)
# heavy 1: B4 heavy 1 with S241D, A300S, A332L, I334E, A335E, A336K
# heavy 2: B4 heavy 2 with S241D, A300S, A332L, I334E, A335E, A336K
# light: B4 light
# modifications: afucosylated Fc N-glycan
# notes: Afucosylated form of hCl1a DLE-RLI DANA
# B7: hCl1a AAA-RLI DANA afuc (other)
# heavy 1: B4 heavy 1
# heavy 2: B4 heavy 2
# light: B4 light
# modifications: afucosylated Fc N-glycan
# What was measured:
# [1] = biological target: PD-1 (on PD-1 Effector Cells of the Promega PD-1/PD-L1 Blockade Bioassay) (UniProt Q15116 25-288, limits assumed); assay: cell-based or functional assay
# Chain of PD-1 (on PD-1 Effector Cells of the Promega PD-1/PD-L1 Blockade Bioassay) (Q15116 25-288 limits assumed): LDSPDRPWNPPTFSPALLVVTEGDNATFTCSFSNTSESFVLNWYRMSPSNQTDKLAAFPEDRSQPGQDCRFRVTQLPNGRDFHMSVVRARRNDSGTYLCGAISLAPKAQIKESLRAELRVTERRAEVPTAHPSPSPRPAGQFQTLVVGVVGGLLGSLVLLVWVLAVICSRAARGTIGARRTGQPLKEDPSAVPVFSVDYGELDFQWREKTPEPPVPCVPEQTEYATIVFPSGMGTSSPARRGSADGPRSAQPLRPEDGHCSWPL
# IL-2/IL-15Rβγ (on cells) [2] = biological target: T1, IL-2/IL-15Rβγ (on cells); assay: cell-based or functional assay
# IL-2/IL-15Rβγ (on cells) [3] = biological target: T1, IL-2/IL-15Rβγ (on cells); assay: cell-based or functional assay; remark: listed apart in the source
# FcγRIIIa V158 [4] = biological target: T3, FcγRIIIa V158 (human, UniProt P08637 17-208, limits assumed); assay: SPR (Biacore 8K), ratio of 1/Kd values
# T3 construct: also called hFcγRIIIaV158; CD16a V158
# T3 sequence (P08637 17-208 F176V limits assumed): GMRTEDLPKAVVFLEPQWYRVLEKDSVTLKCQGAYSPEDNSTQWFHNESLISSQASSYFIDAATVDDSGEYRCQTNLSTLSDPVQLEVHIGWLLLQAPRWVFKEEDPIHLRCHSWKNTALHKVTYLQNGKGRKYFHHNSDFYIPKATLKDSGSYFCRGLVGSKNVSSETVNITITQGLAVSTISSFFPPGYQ
# Protocol: (§1) SPR experiments were performed on a Biacore 8K (Cytiva, Chicago, IL, USA), using CM5 sensor chips (Cytiva) with an immobilization using THE His tag antibodies (Genscript). FcγRIIIa V158, FcγRIIIa F158 or FcγRIIb protein were used for capture with a contact time of 30 sec at a flow rate of […] in a 1×HBS-EP+ running buffer. Association/dissociation rates were measured for each tested immunocytokine at a flow rate of 30 μl/min with concentration serial dilution in a suitable range with an association time/dissociation time of 300 s/300 s except for constructs with DLE and DE with and without afucosylation, where association/dissociation time of 120 s/1200 s was applied.
# FcγRIIIa F158 [5] = biological target: T4, FcγRIIIa F158 (human, UniProt P08637 17-208, limits assumed); assay: SPR (Biacore 8K), ratio of 1/Kd values
# T4 construct: also called hFcγRIIIaF158; CD16a F158
# T4 sequence (P08637 17-208 limits assumed): as the sequence (P08637 17-208 F176V limits assumed) above, with V160F counted along it
# Protocol: as §1
# FcγRIIIa V158 [6] = biological target: T3, FcγRIIIa V158; assay: SPR (Biacore 8K), receptor captured via anti-His antibody
# Protocol: as §1
# FcγRIIIa F158 [7] = biological target: T4, FcγRIIIa F158; assay: as above
# Protocol: as §1
# FcγRIIb = biological target: T2, FcγRIIb; assay: as above
# Protocol: as §1
Binder,"EC50 [pM], PD-1/PD-L1 Blockade Bioassay (Promega) [1]",Potency in vitro (kit225) (IL-2/IL-15Rβγ (on cells) [2]),EC50 kit225 cells [pM] (IL-2/IL-15Rβγ (on cells) [3]),"A/I (V158), affinity towards FcγRIIIa over affinity towards FcγRIIb (FcγRIIIa V158 [4])","A/I (F158), affinity towards FcγRIIIa over affinity towards FcγRIIb (FcγRIIIa F158 [5])",Kd (FcγRIIIa V158 [6]),Kd (FcγRIIIa F158 [7]),Kd (FcγRIIb)
B1,1440 pM,–,–,–,–,–,–,–
B2,–,-15700 x (fold against RLI2 wt),–,–,–,–,–,–
B3,–,–,106000 pM,–,–,–,–,–
B4,–,–,–,691 ratio,244 ratio,35.6 nM,101 nM,24600 nM
B5,–,–,–,464 ratio,228 ratio,5.71 nM,11.6 nM,2650 nM
B6,–,–,–,13700 ratio,9370 ratio,0.162 nM,0.237 nM,2220 nM
B7,–,–,–,1010 ratio,380 ratio,17.3 nM,46.1 nM,17500 nM
